Measurements as given in patent US9982028B2, “Recombinant human interferon-like proteins” (Novagen Holding Corporation, priority 2007, dated 2018).
Values joined by “and” are separate entries in the source; they are usually repeats but may differ in a detail not shown here. Equal values may be shown once. “Also recorded” adds a separate entry of the source.

What was measured:
[1] = tested on: human melanoma A-375 xenografts; assay: Human melanoma xenograft model; format: in vivo, athymic nude Balb/c mice; settings: A-375 xenograft; for Tumor weight (X ± SD): n = 10
[2] = tested on: human colon cancer LS 180 xenografts; assay: Human colon cancer xenograft model; format: in vivo, athymic nude Balb/c mice; settings: LS 180 xenograft; for Tumor weight (X ± SD): n = 10
[3] = tested on: human leukemia HL 60(s) xenografts; assay: Human leukemia xenograft model; format: in vivo, athymic nude Balb/c mice; settings: HL 60(s) xenograft; for Tumor weight (X ± SD): n = 10
[4] = General condition of the mice during treatment; format: in vivo; settings: mice with human cancer xenografts, during the treatment period
[5] = tested on: Vesicular Stomatitis Virus (VSV) on WISH cells; format: cell-based; settings: against VSV on WISH; units with reference to WHO international standards 94/786 and 95/650
[6] = tested on: PLC/PRF/5 hepatoma cell line; assay: Anti-proliferative assay, PLC/PRF/5; format: cell-based, human
[7] = tested on: A549 lung carcinoma cell line; assay: Anti-proliferative assay, A549; format: cell-based, human
[8] = tested on: DU 145 prostate carcinoma cell line; assay: Anti-proliferative assay, DU 145; format: cell-based, human
[9] = tested on: Hep G2 hepatocellular carcinoma cell line; assay: Anti-proliferative assay, Hep G2; format: cell-based, human; settings: HepG2
HuH-7 hepatoma cell line = assay: Anti-proliferative assay, HuH-7; format: cell-based, human
[10] = tested on: Hep3B hepatocellular carcinoma cell line; assay: Anti-proliferative assay, Hep3B; format: cell-based, human
[11] = tested on: IPC-298 melanoma cell line; assay: Anti-proliferative assay, IPC-298; format: cell-based, human
[12] = tested on: LS174T colorectal adenocarcinoma cell line; assay: Anti-proliferative assay, LS174T; format: cell-based, human
[13] = tested on: IGR-37 melanoma cell line; assay: Anti-proliferative assay, IGR-37; format: cell-based, human
[14] = tested on: PC-3 prostate carcinoma cell line; assay: Anti-proliferative assay, PC-3; format: cell-based, human
[15] = tested on: HeLa cervix adenocarcinoma cell line; assay: Anti-proliferative assay, HeLa; format: cell-based, human
[16] = tested on: C-33A cervix carcinoma cell line; assay: Anti-proliferative assay, C-33A; format: cell-based, human
[17] = tested on: MKN 1 gastric adenocarcinoma cell line; assay: Anti-proliferative assay, MKN 1; format: cell-based, human
[18] = tested on: HCT-8 colorectal adenocarcinoma cell line; assay: Anti-proliferative assay, HCT-8; format: cell-based, human
[19] = tested on: SW 1116 colorectal adenocarcinoma cell line; assay: Anti-proliferative assay, SW 1116; format: cell-based, human
[20] = tested on: DLD-1 colorectal adenocarcinoma cell line; assay: Anti-proliferative assay, DLD-1; format: cell-based, human
[21] = tested on: HL-60(S) lymphocytic cell line; assay: Anti-proliferative assay, HL-60(S); format: cell-based, human
[22] = tested on: LS 180 colorectal adenocarcinoma cell line; assay: Anti-proliferative assay, LS 180; format: cell-based, human
[23] = tested on: KYSE 30 esophagus carcinoma cell line; assay: Anti-proliferative assay, KYSE 30; format: cell-based, human
A-375 melanoma cell line = assay: Anti-proliferative assay, A-375; format: cell-based, human
IGR-1 melanoma cell line = assay: Anti-proliferative assay, IGR-1; format: cell-based, human
[24] = tested on: L-428 Hodgkin's lymphoma cell line; assay: Anti-proliferative assay, L-428; format: cell-based, human
[25] = tested on: human prostate cancer PC-3 xenografts; assay: Human prostate cancer xenograft model; format: in vivo, athymic nude Balb/c mice; settings: PC-3 xenograft; for Inhibition rate / Tumor weight (mean ± SD): 30 days; for Tumor weight (mean ± SD): n = 10
Description: Colon cancer cell line (LS 180), melanoma cell line (A-375) and liver cancer cell line (Hep G2) were obtained from the American Type Culture Collection (ATCC, Rockville, Md.). Prostate cancer cell line (PC-3) was obtained from German National Resource Centre for Biological Material (DSMZ, Deutsche […] von Mikroorganismen and Zellkulturen, Germany). Lymphocytic cell line (HL 60(s) was purchased from Japanese Collection of Research Bioresources Cell Bank (JCRB, Japan). All cells were cultured according to their instructions (see Table 1). Briefly, LS 180 and Hep G2 were cultured in MEM medium. A-375 was cultured in DMEM. Both media were supplemented with 10% fetal bovine serum (FBS), 2 mM […] U/ml of penicillin, […] of streptomycin, 0.1 mM non-essential amino acids, and 1.0 mM sodium pyruvate. PC-3 and HL 60 (S) cells were cultured in RPMI 1640, supplemented with 10% FBS, 100 U/ml of penicillin, and […] of streptomycin. All cells were maintained in 5% CO2 atmosphere at 37° C. […] For the treatment of 5-FU, 30 mg/kg of 5-FU was i.v. administrated once every two days for a total of 5 times. The groups and treatment doses are summarized below: Once treatment commenced, tumors were measured with a caliper once a week. […] Mice were sacrificed at the day of treatment discontinuation (day 30 after commencement of the treatment). Solid tumors were isolated, photographed, and measured. […] C is the average tumor weight in control group after treatment.

[26] = tested on: human liver cancer Hep G2 xenografts; assay: Human liver cancer xenograft model; format: in vivo, athymic nude Balb/c mice; settings: 30 days; for Tumor weight (mean ± SD): n = 10
[27] = 30 mg/kg (30,000 μg/kg) i.v. once every 2 days for 5 times

Molecule: O=c1[nH]cc(F)c(=O)[nH]1 [5-FU, 5-Fluorouracil, reference compound]
- Inhibition rate [1, 27]: 67.2%
- Tumor weight (X ± SD) [1, 27]: 1.004 ± 0.105 g
- Inhibition rate [2, 27]: 81.8%
- Tumor weight (X ± SD) [2, 27]: 0.758 ± 0.227 g
- Inhibition rate [3, 27]: 76.0%
- Tumor weight (X ± SD) [3, 27]: 0.893 ± 0.289 g
- general condition of treated mice (eating, behavior, weight loss) [4]: significant weight loss and activity reduction; also recorded: showed typical changes of eating and behavior, and weight loss

B1: Novaferon: novel recombinant non-naturally occurring human interferon-like protein, 166 amino acids (SEQ ID No: 2), from Type I interferon shuffling library, expressed in E. coli (protein)
chain: CNLSQTHSLGSKRTLMLLAQMGKISLFSCLKDRHDFEFPQEEFDGNQFQKAQAISVLHELIQQTFNLFSTKESSAAWDEGLLDKFRTELYRQLNDLEACMMQEVGVEETPLMNADSILAVKKYFQRITLYLMEKKYSPCAWEVVRVEIMRSLSFSTNLQKRLRGKD
- anti-viral activity [5]: 2.5×10^9 IU/mg
- Fold (Novaferon/HuIFN-α2b), increased tumor cell inhibition [6]: 16 fold
- Fold (Novaferon/HuIFN-α2b), increased tumor cell inhibition [7]: 19 fold
- Fold (Novaferon/HuIFN-α2b), increased tumor cell inhibition [8]: 36 fold
- Fold (Novaferon/HuIFN-α2b), increased tumor cell inhibition [9]: 43 fold
- Fold (Novaferon/HuIFN-α2b), increased tumor cell inhibition (HuH-7 hepatoma cell line): 58 fold
- Fold (Novaferon/HuIFN-α2b), increased tumor cell inhibition [10]: 58 fold
- Fold (Novaferon/HuIFN-α2b), increased tumor cell inhibition [11]: 70 fold
- Fold (Novaferon/HuIFN-α2b), increased tumor cell inhibition [12]: 74 fold
- Fold (Novaferon/HuIFN-α2b), increased tumor cell inhibition [13]: 109 fold
- Fold (Novaferon/HuIFN-α2b), increased tumor cell inhibition [14]: 128 fold
- Fold (Novaferon/HuIFN-α2b), increased tumor cell inhibition [15]: 141 fold
- Fold (Novaferon/HuIFN-α2b), increased tumor cell inhibition [16]: 143 fold
- Fold (Novaferon/HuIFN-α2b), increased tumor cell inhibition [17]: 207 fold
- Fold (Novaferon/HuIFN-α2b), increased tumor cell inhibition [18]: 212 fold
- Fold (Novaferon/HuIFN-α2b), increased tumor cell inhibition [19]: 222 fold
- Fold (Novaferon/HuIFN-α2b), increased tumor cell inhibition [20]: 282 fold
- Fold (Novaferon/HuIFN-α2b), increased tumor cell inhibition [21]: 306 fold
- Fold (Novaferon/HuIFN-α2b), increased tumor cell inhibition [22]: 350 fold
- Fold (Novaferon/HuIFN-α2b), increased tumor cell inhibition [23]: 683 fold
- Fold (Novaferon/HuIFN-α2b), increased tumor cell inhibition (A-375 melanoma cell line): 733 fold
- Fold (Novaferon/HuIFN-α2b), increased tumor cell inhibition (IGR-1 melanoma cell line): 876 fold
- Fold (Novaferon/HuIFN-α2b), increased tumor cell inhibition [24]: 1134 fold
- Inhibition rate ([25]; 1.25 μg/kg daily s.c.): 35.0%
- Tumor weight (mean ± SD) ([25]; 1.25 μg/kg daily s.c.): 1.266 ± 0.457 g
- Inhibition rate ([25]; 12.5 μg/kg daily s.c.): 61.0%
- Tumor weight (mean ± SD) ([25]; 12.5 μg/kg daily s.c.): 0.759 ± 0.574 g
- Inhibition rate ([25]; 125 μg/kg daily s.c.): 95.3% and 95.1%
- Tumor weight (mean ± SD) ([25]; 125 μg/kg daily s.c.): 0.09±0.081 g and 0.091±0.081 g and 0.091 ± 0.081***@@@ g
- average volume of tumor mass ([25]; 125 μg/kg daily s.c., day 28): 107.9±68.7 mm^3
- average volume of tumor mass ([25]; 125 μg/kg daily s.c., day 30): 122.1±100.7 mm^3
- Inhibition rate ([26]; 1.25 μg/kg daily s.c.): 63.4%
- average tumor volume ([26]; 1.25 μg/kg daily s.c.): 783.2±270.0 mm^3
- Tumor weight (mean ± SD) ([26]; 1.25 μg/kg daily s.c.): 0.797 ± 0.397 g
- Inhibition rate ([26]; 12.5 μg/kg daily s.c.): 85.3%
- average tumor volume ([26]; 12.5 μg/kg daily s.c.): 439.3±414.3 mm^3
- Tumor weight (mean ± SD) ([26]; 12.5 μg/kg daily s.c.): 0.321 ± 0.300 g
- Inhibition rate ([26]; 125 μg/kg daily s.c.): 96.6%
- average tumor volume ([26]; 125 μg/kg daily s.c.): 104.6±56.5 mm^3
- Tumor weight (mean ± SD) ([26]; 125 μg/kg daily s.c.): 0.074±0.083 g and 0.074 ± 0.083***@ g
- Inhibition rate ([1]; 1.25 μg/kg daily s.c.): 40.1%
- Tumor weight (X ± SD) ([1]; 1.25 μg/kg daily s.c., 30 days (28 days in the source)): 1.830 ± 0.289 g
- Inhibition rate ([1]; 12.5 μg/kg daily s.c.): 75.0%
- Tumor weight (X ± SD) ([1]; 12.5 μg/kg daily s.c., 30 days (28 days in the source)): 0.763±0.187 g and 0.763 ± 0.187***&& $$$ g
- Inhibition rate ([1]; 125 μg/kg daily s.c.): 82.8%
- Tumor weight (X ± SD) ([1]; 125 μg/kg daily s.c., 30 days (28 days in the source)): 0.527±0.149 g and 0.527 ± 0.149***&&&@@@ g
- Inhibition rate ([2]; 1.25 μg/kg daily s.c., 28 days): 75.0%
- Tumor weight (X ± SD) ([2]; 1.25 μg/kg daily s.c., 28 days): 1.043 ± 0.433 g
- Inhibition rate ([2]; 12.5 μg/kg daily s.c., 28 days): 80.5%
- Tumor weight (X ± SD) ([2]; 12.5 μg/kg daily s.c., 28 days): 0.815 ± 0.221 g
- Inhibition rate ([2]; 125 μg/kg daily s.c., 28 days): 92.5%
- Tumor weight (X ± SD) ([2]; 125 μg/kg daily s.c., 28 days): 0.314 ± 0.086 &&&@@@ g
- Inhibition rate ([3]; 1.25 μg/kg daily s.c., 21 days): 43.8%
- Tumor weight (X ± SD) ([3]; 1.25 μg/kg daily s.c., 21 days): 2.091 ± 0.653 g
- Inhibition rate ([3]; 12.5 μg/kg daily s.c., 21 days): 55.2%
- Tumor weight (X ± SD) ([3]; 12.5 μg/kg daily s.c., 21 days): 1.668 ± 0.665 g
- Inhibition rate ([3]; 125 μg/kg daily s.c., 21 days): 80.4%
- Tumor weight (X ± SD) ([3]; 125 μg/kg daily s.c., 21 days): 0.729 ± 0.332***@ g
- general condition of treated mice (eating, behavior, weight loss) [4]: did not induce weight loss, activity changes and other negative side-effects; also recorded: normal eating and activity behavior and no weight loss; also recorded: generally ate and behaved normally, and had no weight loss
